T1: recombinant extracellular domain (ECD) of the human prolactin receptor (PRLR) (human, UniProt P16471 25-234)
T1 construct: also called PRLR ECD; Human PRLR; not shown: His tag
T1 sequence: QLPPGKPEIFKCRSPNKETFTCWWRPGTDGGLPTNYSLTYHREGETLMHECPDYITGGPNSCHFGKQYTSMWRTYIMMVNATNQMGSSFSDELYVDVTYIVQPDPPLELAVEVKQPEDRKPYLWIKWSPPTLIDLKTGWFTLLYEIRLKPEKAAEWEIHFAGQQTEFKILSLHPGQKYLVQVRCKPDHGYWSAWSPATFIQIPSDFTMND

T2: cynomolgus PRLR ECD (cynomolgus, UniProt A0A2K5WXK1 25-234)
T2 construct: extracellular domain; also called Cyno PRLR
T2 sequence: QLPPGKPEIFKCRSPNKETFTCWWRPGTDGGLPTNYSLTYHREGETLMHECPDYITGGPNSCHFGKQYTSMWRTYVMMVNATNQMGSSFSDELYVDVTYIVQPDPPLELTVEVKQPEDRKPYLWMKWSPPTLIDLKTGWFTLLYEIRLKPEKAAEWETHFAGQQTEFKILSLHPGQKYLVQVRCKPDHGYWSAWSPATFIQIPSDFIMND

T3: rat PRLR ECD (rat, UniProt P05710 20-229)
T3 construct: extracellular domain
T3 sequence (looked up): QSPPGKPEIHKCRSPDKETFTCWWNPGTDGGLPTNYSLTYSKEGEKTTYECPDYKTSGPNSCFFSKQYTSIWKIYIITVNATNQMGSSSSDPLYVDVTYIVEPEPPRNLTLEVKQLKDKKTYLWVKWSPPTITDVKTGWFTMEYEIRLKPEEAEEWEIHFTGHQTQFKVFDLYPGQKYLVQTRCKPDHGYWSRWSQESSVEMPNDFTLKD

T4: murine PRLR ECD (mouse, UniProt Q08501 20-229)
T4 construct: extracellular domain; also called Mouse PRLR
T4 sequence (looked up): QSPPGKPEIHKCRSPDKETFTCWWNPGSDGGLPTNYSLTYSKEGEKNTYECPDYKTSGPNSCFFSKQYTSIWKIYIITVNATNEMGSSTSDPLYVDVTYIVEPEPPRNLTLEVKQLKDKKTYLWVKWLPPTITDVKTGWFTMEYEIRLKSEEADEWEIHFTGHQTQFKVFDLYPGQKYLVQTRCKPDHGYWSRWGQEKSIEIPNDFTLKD


Legend:
[1] = target: T1, recombinant extracellular domain (ECD) …; test: Biacore 2000 SPR, antibody captured, PRLR ECD injected
[2] = target: T1, recombinant extracellular domain (ECD) …; test: Biacore 2000 SPR, antibody captured on Protein A/G, PRLR ECD titrated, 1:1 Langmuir, 25 C
[3] = target: T2, cynomolgus PRLR ECD; test: Biacore SPR, antibody captured on Protein A/G, kinetic titration of PRLR ECD, 1:1 Langmuir
Method: (§1) Affinity of the chimerized and Human Engineered™ antibodies determined by Biacore analysis. Briefly, a CM5 sensor chip (Biacore) immobilized with Protein A/G (Pierce) via NHS/EDC was used to capture approximately 600 RU of antibody on the chip surface. Five concentrations of PRLR ECD beginning at 5 ug/mL (185 nM) and serially diluted at 5× dilution to 0.3 nM were injected from lowest to highest concentration in the kinetic titration injection mode, and 15 minutes of dissociation data was collected. The experiments were double-referenced, i.e. an adjacent flow cell response was subtracted automatically, and the response from a buffer injection experiment was subtracted from the experimental data set. Kinetic and derived parameters (kₐ, kd and KD) were determined by fitting to a 1:1 Langmuir model using BiaEval software customized to the kinetic titration injection mode. Affinity measurements of both chimeric and all Human Engineered™ antibodies against human and cynomolgus PRLR ECD are summarized in Table 9 and Table 10.

[4] = target: T1, recombinant extracellular domain (ECD) …; test: as above
Method: as §1

[5] = target: T2, cynomolgus PRLR ECD; test: Biacore SPR, antibody covalently immobilized on CM4 chip, PRLR ECD 111 to 1.37 nM
[6] = target: T3, rat PRLR ECD; test: as above
[7] = target: T1, recombinant extracellular domain (ECD) …; test: as above
[8] = target: T4, murine PRLR ECD; test: as above

| Binder | Kd [1] | Kd [2] | koff [2] | kon [2] | Kd [3] | Kd [4] | other results |
| --- | --- | --- | --- | --- | --- | --- | --- |
| XPA.06.147 (Fc fusion) chain 1: EVQLLESGGGLVQPGGSLRLSCAASGFTFSSYGMHWVRQAPGKGLEWVSAIGGRGVSTYYADSVKGRFTISRDNSKNTLYLQMNSLRAEDTAVYYCARGSNWTHALGFDPWGQGTLVTV chain 2: not shown |  | 9.8 nM | 0.0053 s⁻¹ | 550000 M⁻¹ s⁻¹ |  |  |  |
| XPA.06.141 (Fc fusion) chain 1: EVQLLESGGGLVQPGGSLRLSCAASGFTFSNSGMHWVRQAPGKGLEWVAAISYDGSNKYYADSVKGRFTISRDNSKNTLYLQMNSLRAEDTAVYYCARADSSGTVDYWGQGTLVTV chain 2: not shown |  | 8.4 nM | 0.00053 s⁻¹ | 63000 M⁻¹ s⁻¹ |  |  |  |
| XPA.06.167 (Fc fusion) chain 1: EVQLLESGGGLVQPGGSLRLSCAASGFTFGSYGMHWVRQAPGKGLEWVSLISWDGGSTYYADSVKGRFTISRDNSKNTLYLQMNSLRAEDTAVYYCASSISAAATGLDYWGQGTLVTV chain 2: not shown | 4 nM |  |  |  |  |  |  |
| XPA.06.145 (Fc fusion) chain 1: EVQLLESGGGLVQPGGSLRLSCAASGFTFSNYGMHWVRQAPGKGLEWVSLISWDGGRTSYTDSVKGRFTISRDNSKNTLYLQMNSLRAEDTAVYYCARGLIGDNWGQGTLVTVSS chain 2: QSVLTQPPSASGTPGQRVTISCTGSSSNIGAGYDVHWYQQLPGTAPKLLIYDNNKRPSGVPDRFSGSKSGTSASLAISGLRSEDEADYYCAAWDDSLNGWVFGGGTKLTVL | 10 nM |  |  |  |  |  |  |
| he.06.275-1 (antibody, V domains shown, Human Engineered) VH: DVQLQESGPGLVKPSQTLSLTCTVTGYSITSDYAWNWIRQFPGKKLEWMGYISYSGSTSYNPSLKSRITISRDTSKNQFSLQLNSVTAADTATYFCARDYGYVFDYWGQGTTLTVSS VL: DVQITQSPSSLSASPGDRITLTCRASKNIYKYLAWYQEKPGKTNNLLIYSGSTLHSGIPSRFSGSGSGTDFTLTISSLQPEDFAMYYCQQHNDYPYTFGQGTKLEIK |  |  |  |  | 1.6 nM | 0.5 nM |  |
| XPA.06.131 (Fc fusion) chain 1: EVQLLESGGGLVQPGGSLRLSCAASGFTFNSYPVHWVRQAPGKGLEWVAVISYDGNTKYYADSVKGRFTISRDNSKNTLYLQMNSLRAEDTAVYYCARDNPPFDYWGQGTLATV chain 2: QSVLTQPPSASGTPGQRVTISCSGSSSNIGNNYVSWYQQLPGTAPKLLIYDNNNRPSGVPDRFSGSKSGTSASLAISGLRSEDEADYYCEAWDDTLNGPHVVFGGGTKLTVL |  | 2.1 nM | 7.3e-05 s⁻¹ | 34000 M⁻¹ s⁻¹ |  |  |  |
| XPA.06.158 (Fc fusion) chain 1: EVQLLESGGGLVQPGGSLRLSCAASGFTFSSYGMHWVRQAPGKGLEWVSLISWDGYRTHYADSVKGRFTISRDNSKNTLYLQMNSLRAEDTAMYYCTTGASYHALWGQGTLVTV chain 2: QSVLTQPPSASGTPGQRVTISCSGSRSNIGNNYVSWYQQLPGTAPKLLIYDDIKRPSGVPDRFSGSKSGTSASLAISGLRSEDEADYYCATWDDSLNGPVFGGGTKLTVL | 0.7 nM | 0.7 nM | 7.3e-05 s⁻¹ | 110000 M⁻¹ s⁻¹ |  |  |  |
| he.06.642-1 (antibody, V domains shown, Human Engineered) VH: EVQLVESGGGLVQPGGSLRLSCAVSGFTFSSYGMSWVRQAPGKRLEWVATVSSGGTYTYYPDSVKGRFTISRDNSKNTLYLQMNSLRAEDTAMYYCARHRGNYYATYYYAMDYWGQGTLVTVSS VL: DIVLTQSPDSLAVSLGERATINCKASKSVSTSGYTYMHWYQQKPGQPPKLLIYLASNRESGVPDRFSGSGSGTDFTLTISPVQAEDVATYYCQHSGELPPSFGQGTKLEIK |  |  |  |  | 31 nM | 2 nM |  |

Further lines, with some results ahead:

| Kd [1] | Kd [2] | koff [2] | kon [2] | Kd [3] | Kd [4] | Binder | other results |
| --- | --- | --- | --- | --- | --- | --- | --- |
| 7 nM |  |  |  |  |  | XPA.06.217 (Fc fusion) chain 1: EVQLLESGGGLVQPGGSLRLSCAASGFTFSSYAMHWVRQAPGKGLEWVSSISSSSSSIYYADSVKGRFTISRDNSKNTLYLQMNSLRAEDTAVYYCARGGGQQLGAFDIWGQGTLVTV chain 2: not shown |  |
| 20 nM |  |  |  |  |  | XPA.06.178 (Fc fusion) chain 1: EVQLLESGGGLVQPGGSLRLSCAASGFTFDDYGMSWVRQVPGKGLEWVSLISWDGGSTYYADSVKGRFTISRDNSKNTLYLQMNSLRAEDTAVYYCARPSGAYPTPFDNWGQGTLVTV chain 2: not shown |  |
|  |  |  |  | 1.3 nM | 0.43 nM | he.06.275-3 (antibody, V domains shown, Human Engineered) VH: DVQLQESGPGLVKPSQTLSLTCTVTGYSITSDYAWNWIRQFPGKKLEWMGYISYSGSTSYNPSLKSRITISRDTSKNQFSLQLNSVTAADTATYFCARDYGYVFDYWGQGTTLTVSS VL: DVQITQSPSSLSASPGDRITLTCRASKNIYKYLAWYQEKPGKANKLLIYSGSTLHSGIPSRFSGSGSGTDFTLTISSLQPEDFAMYYCQQHNDYPYTFGQGTKLEIK |  |
|  |  |  |  | 1.9 nM | 0.61 nM | he.06.275-2 (antibody, V domains shown, Human Engineered) VH: QVQLQESGPGLVKPSQTLSLTCTVSGYSITSDYAWNWIRQFPGKGLEWMGYISYSGSTSYNPSLKSRITISRDTSKNQFSLQLNSVTAADTAVYFCARDYGYVFDYWGQGTTLTVSS VL: DVQITQSPSSLSASPGDRITLTCRASKNIYKYLAWYQEKPGKTNNLLIYSGSTLHSGIPSRFSGSGSGTDFTLTISSLQPEDFAMYYCQQHNDYPYTFGQGTKLEIK |  |
|  |  |  |  | 47 nM | 3.1 nM | he.06.642-2 (antibody, V domains shown, Human Engineered) VH: EVQLVESGGGLVQPGGSLRLSCAVSGFTFSSYGMSWVRQAPGKGLEWVATVSSGGTYTYYPDSVKGRFTISRDNSKNTLYLQMNSLRAEDTAVYYCARHRGNYYATYYYAMDYWGQGTLVTVSS VL: DIVLTQSPDSLAVSLGERATINCKASKSVSTSGYTYMHWYQQKPGQPPKLLIYLASNRESGVPDRFSGSGSGTDFTLTISPVQAEDVATYYCQHSGELPPSFGQGTKLEIK | Kd [5]: 38.9 nM; Kd [6]: 1.9 nM; Kd [7]: 2.6 nM; Kd [8]: 2.7 nM |
